Data published in publication PMC12876063, “Rad51 determines pathway usage in post-replication repair” (Nature Communications, 2026).
Residue numbers refer to the chain shown, from its start. In names and notes the source's numbering stands. Several values for one entry are separate records, joined by “and”; a condition that tells them apart may be missing. Equal values may be shown once.

T1: Rad51-ED (Rad51-E135D) E135D (Saccharomyces cerevisiae) (UniProt P25454)
T1 sequence: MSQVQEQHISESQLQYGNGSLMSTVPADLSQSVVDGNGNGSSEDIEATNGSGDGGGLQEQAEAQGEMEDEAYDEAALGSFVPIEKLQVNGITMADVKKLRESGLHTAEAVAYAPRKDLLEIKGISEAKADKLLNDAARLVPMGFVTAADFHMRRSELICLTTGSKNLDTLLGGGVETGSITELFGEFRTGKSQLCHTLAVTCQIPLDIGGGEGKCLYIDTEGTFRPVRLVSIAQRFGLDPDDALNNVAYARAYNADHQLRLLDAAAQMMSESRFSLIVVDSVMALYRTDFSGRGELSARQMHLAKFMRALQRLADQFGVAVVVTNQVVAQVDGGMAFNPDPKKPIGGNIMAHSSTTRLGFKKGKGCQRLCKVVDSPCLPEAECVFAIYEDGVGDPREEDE

T2: Rad51 wild type (Saccharomyces cerevisiae) (UniProt P25454)
T2 sequence: T1 sequence with D135E

T3: Rad51-KN (Rad51-K305N) K305N (Saccharomyces cerevisiae) (UniProt P25454)
T3 sequence: T1 sequence with D135E, K305N

T4: GST-Rad55-His6-Rad57 complex (S. cerevisiae, UniProt P38953 1-406; P25301 1-460)
T4 construct: Rad55, Rad51 paralog of budding yeast; Rad57, Rad51 paralog of budding yeast; stored in 20 mM Tris-HCl pH 7.5, 0.2 M NaCl, 0.1 mM EDTA, 1 mM DTT, 50% glycerol; also called Rad55-Rad57; Rad51 paralog complex; source: purified as described (Liu et al. 2011b)
T4 sequence (looked up) 1: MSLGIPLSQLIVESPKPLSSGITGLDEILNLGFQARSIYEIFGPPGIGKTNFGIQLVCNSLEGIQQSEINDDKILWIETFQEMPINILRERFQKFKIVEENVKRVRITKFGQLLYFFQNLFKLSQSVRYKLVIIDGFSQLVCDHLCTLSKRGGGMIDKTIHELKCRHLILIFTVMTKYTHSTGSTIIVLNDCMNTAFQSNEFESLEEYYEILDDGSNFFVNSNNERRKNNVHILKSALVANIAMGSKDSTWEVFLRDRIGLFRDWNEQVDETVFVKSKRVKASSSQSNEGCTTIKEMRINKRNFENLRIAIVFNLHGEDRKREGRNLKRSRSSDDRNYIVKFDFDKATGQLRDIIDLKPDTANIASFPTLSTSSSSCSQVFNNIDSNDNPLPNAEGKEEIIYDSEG
T4 sequence (looked up) 2: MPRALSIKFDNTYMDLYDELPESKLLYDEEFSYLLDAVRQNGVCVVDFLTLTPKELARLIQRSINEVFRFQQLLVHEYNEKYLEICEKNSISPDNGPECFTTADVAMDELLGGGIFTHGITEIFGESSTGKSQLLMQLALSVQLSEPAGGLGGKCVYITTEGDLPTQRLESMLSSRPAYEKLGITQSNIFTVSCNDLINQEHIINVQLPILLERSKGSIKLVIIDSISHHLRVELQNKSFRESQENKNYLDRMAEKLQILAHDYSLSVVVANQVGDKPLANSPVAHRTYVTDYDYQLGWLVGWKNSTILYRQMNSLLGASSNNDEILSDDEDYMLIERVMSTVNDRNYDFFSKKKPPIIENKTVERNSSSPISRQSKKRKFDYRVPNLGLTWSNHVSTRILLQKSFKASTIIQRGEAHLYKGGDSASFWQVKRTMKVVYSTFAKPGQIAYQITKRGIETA

B1: Rad51 wild type protein (natural protein, S. cerevisiae, UniProt P25454 1-400, looked up)
chain: T1 sequence with D135E
notes: Rad51, Saccharomyces cerevisiae; native, untagged protein; Purified native and untagged; also called wild-type Rad51; wild type Rad51
B2: Rad51-E135D (natural protein, S. cerevisiae, UniProt P25454 1-400, looked up)
chain: T1 sequence
notes: Rad51, Saccharomyces cerevisiae, with the single change E135D (isolated by mutagenic PCR); native, untagged protein; also called Rad51-ED; rad51-ED
B3: Rad51-K305N (natural protein, S. cerevisiae, UniProt P25454 1-400, looked up)
chain: T1 sequence with D135E, K305N
notes: Rad51, Saccharomyces cerevisiae, with the single change K305N (isolated by mutagenic PCR); native, untagged protein; also called Rad51-KN; RAD51-KN

Experiments:
[1] = target: T1, Rad51-ED (Rad51-E135D) E135D (Saccharomyces cerevisiae); experiment: EMSA; conditions: Kd EMSA: 35 mM Tris-acetate pH 7.5, 50 or 100 mM NaCl, 7 mM Mg acetate, 2 mM ATP, 1 mM DTT, 0.25 mg/mL BSA, 3 uM nt/bp DNA, 30 C 30 min; salt titration: 20 mM …
[2] = target: T2, Rad51 wild type (Saccharomyces cerevisiae); experiment: EMSA; conditions: Kd EMSA: 35 mM Tris-acetate pH 7.5, 50 or 100 mM NaCl, 7 mM Mg acetate, 2 mM ATP, 1 mM DTT, 0.25 mg/mL BSA, 3 uM nt/bp DNA, 30 C 30 min; salt titration: 20 mM …
[3] = target: T3, Rad51-KN (Rad51-K305N) K305N (Saccharomyces cerevisiae); experiment: EMSA; conditions: Kd EMSA: 35 mM Tris-acetate pH 7.5, 50 or 100 mM NaCl, 7 mM Mg acetate, 2 mM ATP, 1 mM DTT, 0.25 mg/mL BSA, 3 uM nt/bp DNA, 30 C 30 min; salt titration: 20 mM …
[4] = target: T1, Rad51-ED (Rad51-E135D) E135D (Saccharomyces cerevisiae); experiment: EMSA (salt titration); conditions: 3.33 uM Rad51, ATP, Mg2+; listed as label assigned from text (ED defect stronger); Kd EMSA: 35 mM Tris-acetate pH 7.5, 50 or 100 mM NaCl, 7 mM Mg acetate, 2 mM ATP, 1 mM DTT, 0.25 mg/mL BSA, 3 uM nt/bp DNA, 30 C 30 min; salt titration: 20 mM …
[5] = target: T2, Rad51 wild type (Saccharomyces cerevisiae); experiment: EMSA (salt titration); conditions: 3.33 uM Rad51, ATP, Mg2+, glutaraldehyde fixed; Kd EMSA: 35 mM Tris-acetate pH 7.5, 50 or 100 mM NaCl, 7 mM Mg acetate, 2 mM ATP, 1 mM DTT, 0.25 mg/mL BSA, 3 uM nt/bp DNA, 30 C 30 min; salt titration: 20 mM …
[6] = target: T3, Rad51-KN (Rad51-K305N) K305N (Saccharomyces cerevisiae); experiment: EMSA (salt titration); conditions: 3.33 uM Rad51, ATP, Mg2+; listed as label assigned from text (ED defect stronger); Kd EMSA: 35 mM Tris-acetate pH 7.5, 50 or 100 mM NaCl, 7 mM Mg acetate, 2 mM ATP, 1 mM DTT, 0.25 mg/mL BSA, 3 uM nt/bp DNA, 30 C 30 min; salt titration: 20 mM …
[7] = target: T4, GST-Rad55-His6-Rad57 complex; experiment: pull-down; 100 nM GST-Rad55-His6-Rad57 with 100 nM Rad51 in buffer P (25 mM Tris-acetate pH 7.5, 10 mM magnesium acetate, 50 mM NaCl, 1 mM DTT, 10% glycerol, 0.01% NP-40), 25 ul, 1 h at room temperature; captured on BSA-treated glutathione agarose beads; immunoblot with anti-Rad51 and anti-GST; conditions: both partners purified

| Molecule | salt titration midpoint (mM NaCl (salt titration midpoint)) [4] | salt titration midpoint (mM NaCl (salt titration midpoint)) [5] | salt titration midpoint (mM NaCl (salt titration midpoint)) [6] | binding result [7] | also measured |
| --- | --- | --- | --- | --- | --- |
| AACGACGTTTGGTCAGTTCCATCAACATCATAGCCAGATGCCCAGAGATTAGAGCGCATGACAAGTAAAGGACGGTTGTCAGCGTCATAAGAGGTTTTAC [olWDH2086 100 nt ssDNA] | – | – | – | – | Kd [1]: 0.486 µM and 0.602 µM; Kd [2]: 0.497 µM and 0.578 µM; Kd [3]: 0.339 µM and 0.402 µM |
| PhiX174 RF1 dsDNA | 42 | 174 | 71 | – | – |
| PhiX174 viral ssDNA | 130 | 246 | 143 | – | – |
| B1 | – | – | – | binds | – |
| B2 | – | – | – | binds | – |
| B3 | – | – | – | binds | – |
